The values that follow come from patent US8975044B2, “Polynucleotides encoding for frizzled-binding agents and uses thereof” (OncoMed Pharmaceuticals, Inc., priority 2008, dated 2015).

One assay has as its target FZD5. Briefly: Biacore affinity to recombinant Fzd Fc protein. It counts as binding, human. The conditions noted are these: IgG antibody; Fzd Fc immobilized on CM5 Biacore chip. The procedure: (§1) The KDs of 18R8 and 18R5 antibodies were determined using the Biacore 2000 system from Biacore Lifescience (GE Healthcare). Specifically, purified anti-Fzd7 antibodies were serially diluted in 2-fold increments from 100 to 0.78 nM in HBS-P (0.01 M HEPES pH 7.4, 0.15 M NaCl, 0.005% v/v Surfactant P20). Each dilution was tested against recombinant Fzd Fc proteins immobilized onto a CM5 Biacore chip. The association and dissociation rates were measured and KD values determined using the Biaevaluation software program (Table 5, below).
A general note: Surface plasmon resonance follows binding to a sensor surface in real time, without labels.

Another assay addresses FZD1. Description: Biacore affinity to recombinant Fzd Fc protein. In kind it is binding, human. Particulars: IgG antibody; Fzd Fc immobilized on CM5 Biacore chip. The procedure:
as §1

For the next assay, the target named is FZD2. Briefly: Biacore affinity to recombinant Fzd Fc protein. It counts as binding, human. Particulars: IgG antibody; Fzd Fc immobilized on CM5 Biacore chip. The method, then:
as §1

The test system of the next assay is ACTA2. Description: ACTA2 gene expression in treated OMP-PN4 tumors by microarray. The conditions noted are these: 10 mg/kg once a week for 6 weeks; tumor stroma. In kind it is in vivo, NOD/SCID mice. The procedure: As described in Example 7 above, OMP-PN4 tumor-bearing NOD/SCID mice were treated with control Ab (LZ-1), 18R5, gemcitabine, or the combination of 18R5 and gemcitabine once a week for 6 weeks. The antibodies were administered at a concentration of 10 mg/kg. After they were harvested, the tumors from that experiment were analyzed for the expression of Wnt target genes at both the RNA and protein levels, using microarray and IHC, respectively.
Total RNA was extracted from the tumors, amplified, and subjected to microarray analysis. Total RNAs were amplified using the Ovation RNA Amplification System V2 (NuGEN, San Carlos, Calif.). Resulting amplified, antisense ss-cDNA was fragmented and biotinylated using the FL-Ovation cDNA Biotin Module V2 (NuGEN) for use on Affymetrix chips. Affymetrix HG-U133 plus 2 or MG 430 2.0 oligonucleotide microarrays were used in these experiments (performed at Almac Diagnostics, Durham, N.C.). […] The quality of the cDNA and the fragmented cDNA were assessed by spectrophotometer and the Bioanalyzer before the array hybridization. The scanned raw chip data were quantified and scaled using the GCOS software package (Affymetrix) and subjected to a comprehensive assessment of Gene Chip Quality Control recommended by Affymetrix to detect any chips defects and outliers, which were excluded from the subsequent data analysis. […]

The next assay relates to Wnt target genes. Briefly: qPCR of Wnt target genes in tumor of OMP-PN13-bearing mice. In kind it is in vivo, NOD/SCID mice. The method, then: Frozen OMP-PN13 tumor cells that have been passaged twice in mice were obtained from Oncomed's tumor bank. They were thawed and injected subcutaneously into the left flank of NOD/SCID mice immediately following thawing. ˜ 25,000 viable cells were injected per animal. The mice were monitored weekly for tumor growth. After their onset, the size of the tumors was measured once weekly by caliper. 200-300 mm^3 tumor-bearing mice were dispatched in treatment groups that each contained 5 animals. […] Ab treatment was initiated the day after randomization. LZ1 was used as the negative control Ab. 3 doses of 10 mg/kg of Ab were administered via intra-peritoneal injection over a 12-day period. Mice were euthanized 24 hours after the last injection. Tumor, duodenum and liver were harvested.
Total RNAs were also extracted from tumor, duodenum and liver for Wnt target gene expression analyses using qPCR.
Tissues were immediately transferred into RNAlater (QIAGEN) at the time of harvest. RNA was extracted using the QIAGEN RNeasy for Fibrous Tissue mini kit according to the manufacturer instructions. […] All 5 tumors of each treatment group were analyzed. […] ABI SDS 2.2.1 software was used to analyze the data and calculate DeltaCt values that were converted into relative quantities. […] Fold inhibition factors were then calculated relative to control antibody (LZ1).
Background: Quantitative PCR measures a nucleic acid by following its amplification.

In the next assay the test system is Axin2. Briefly: Axin2 mRNA level in A549 cells by qPCR. The conditions noted are these: 5-0.008 μg/ml, 24 hours, relative to LZ1 control. In kind it is cell-based, human. The method, then: A549 cells are human lung carcinoma cells in which the Axin2 gene is highly expressed, translating endogenous activity of Wnt signaling. Axin2 is a well know Wnt target gene that responds to activation of the pathway by up-regulating its transcription and eventually down-regulating Wnt signaling through a feed-back loop mechanism. This system was used to test the impact of the anti-Fzd Abs on Axin2 mRNA levels by qPCR.
12-well plates were seeded with 30,000 A549 cells per well and grown for 3 days in DMEM+10% FBS. Antibodies were added at varying concentrations (5 1, 0.2, 0.04, 0.008 μg/ml) for 24 hours and total RNA was extracted from the cells. LZ1, a nonbinding antibody, was used as negative control at only the highest concentration.
30,000 A549 cells were seeded into 12-well plates and grown for 3 days in DMEM+10% FBS. Anti-FZD antibody 18R5 or 44R24 were added at varying concentrations (5, 1, 0.2, 0.04, 0.008 ug/ml), and LZ1, a nonbinding antibody, was used as a negative control at only the highest concentration. RNA was made 24 hours post treatment and then treated with Dnase.
Axin2 is known to be a robust target gene in Wnt signaling and its expression level was examined by doing a Taqman relative expression (ΔΔCT) assay using an Applied Biosystems 7900 HT machine. 50 ng of RNA was used per point in triplicate and a GUSB probe was used for endogenous control. […]

FZD5, sequence (Q13467 27-150 limits assumed): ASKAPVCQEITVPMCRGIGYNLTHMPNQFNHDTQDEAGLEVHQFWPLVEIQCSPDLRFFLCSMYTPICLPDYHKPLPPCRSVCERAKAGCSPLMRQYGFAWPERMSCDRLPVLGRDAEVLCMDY

B1: 18R5: human anti-FZD antibody; VH SEQ ID NO:10 (as 18R8), VL SEQ ID NO:14; binds FZD1, 2, 5, 7, 8 (antibody, V domains shown)
VH: EVQLVESGGGLVQPGGSLRLSCAASGFTFSHYTLSWVRQAPGKGLEWVSVISGDGSYTYYADSVKGRFTISSDNSKNTLYLQMNSLRAEDTAVYYCARNFIKYVFANWGQGTLVTVSS
VL: DIELTQPPSVSVAPGQTARISCSGDNIGSFYVHWYQQKPGQAPVLVIYDKSNRPSGIPERFSGSNSGNTATLTISGTQAEDEADYYCQSYANTLSLVFGGGTKLTVLG
modifications: 18R5/18R8 heavy chain variable region (VH); 18R5 light chain variable region (VL)
Turning to B1, the Kd on FZD5 stood at 1.9 nM; on FZD1, 4.6 nM; at FZD2 it was 3.3 nM. The ACTA2 expression result with ACTA2 is recorded as “decreased levels of ACTA2 expression”. Moreover, the “inhibition of Wnt target gene in tumor” value in the assay with Wnt target genes (relative to LZ1) turned out to be 2.3 ×. Further, the “inhibition of basal level of axin2 gene expression” value in the assay with Axin2 is on record as “inhibit Axin2 basal levels”.

B2: 18R8: human anti-FZD antibody from phage display; VH SEQ ID NO:10, VL SEQ ID NO:12; binds FZD1, 2, 5, 7, 8 (antibody, V domains shown)
VH: B1 VH
VL: DIELTQPPSVSVAPGQTARISCSGDKLGKKYASWYQQKPGQAPVLVIYEKDNRPSGIPERFSGSNSGNTATLTISGTQAEDEADYYCSSFAGNSLEVFGGGTKLTVLG
modifications: 18R5/18R8 heavy chain variable region (VH); 18R8 light chain variable region (VL)
With B2, the Kd on FZD5 is 4.2 nM; on FZD1 it was 15.6 nM; on FZD2, 6.2 nM.

B3: 44R24: anti-FZD5/8 IgG antibody, VH SEQ ID NO:85, VL SEQ ID NO:86; ATCC deposit no. PTA-10311 (antibody, V domains shown)
VH: EVQLVESGGGLVQPGGSLRLSCAASGFTFSSYYITWVRQAPGKGLEWVSTISYSSSNTYYADSVKGRFTISRDNSKNTLYLQMNSLRAEDTAVYYCARSIVFDYWGQGTLVTVSS
VL: DIELTQPPSVSVAPGQTARISCSGDALGNRYVYWYQQKPGQAPVLVIPSGIPERFSGSNSGNTATLTISGTQAEDEADYYCGSWDTRPYPKYVFGGGTKLTVLG
modifications: 44R24 VH; 44R24 VL
notes: ATCC deposit no; PTA-10311
Take B3: the “tumor Axin2” value with Wnt target genes (fold relative to control antibody LZ1, 3 doses of 10 mg/kg over 12 days) is given as −1.8x. In addition, in the assay with Axin2, the “inhibition of basal level of axin2 gene expression” value is reported as “inhibit Axin2 basal levels”.

In general, Kd refers to a measure of binding affinity in units of concentration.
